Test results: PMC7997880, “MED15 prion-like domain forms a coiled-coil responsible for its amyloid conversion and propagation” (Communications Biology, 2021)
Blank lines part the entries; values can stand above or below the molecule they belong to.

How the values were obtained:
[1] = molecular target: GFP-MED15PP (GFP-MED15CC with five Pro substitutions in the MED15 coiled-coil region); assay: synchronous light scattering (self-association / aggregation); conditions: 5 μM protein, 9 hours at 37 °C without agitation in 20 mM Tris pH 7.5 and 150 mM NaCl; parent: est. 620; read off a plot
[2] = molecular target: GFP-MED15PP (GFP-MED15CC with five Pro substitutions in the MED15 coiled-coil region); assay: GFP fluorescence of supernatant fraction (self-association / aggregation); conditions: 5 μM protein, 9 hours at 37 °C without agitation in 20 mM Tris pH 7.5 and 150 mM NaCl; parent: est. 0.50; read off a plot
[3] = molecular target: the molecule itself; assay: SEC; 2 mg/ml purified protein on Superdex 200 HR 10/30; 20 mM TrisHCl pH 7.4, 150 mM NaCl, 10% glycerol

- response [1]: 180 a.u.
- other: Normalized GFP fluorescence (supernatant fraction) [2]: 0.83
Molecule: GFP-MED15CC (human MED15 prion-like domain, MED15-PrLD, residues 141-316, fused at the C-terminus of GFP) MED15PP (five Pro substitutions at heptad 'a' positions; residues not printed in this figure)

B1: GFP-MED15CC (human MED15 prion-like domain, MED15-PrLD, residues 141-316, fused at the C-terminus of GFP) (domain or fragment)
chain: MAVVSTATPQTQLQLQQVALQQQQQQQQFQQQQQAALQQQQQQQQQQQFQAQQSAMQQQFQAVVQQQQQLQQQQQQQQHLIKLHHQNQQQIQQQQQQLQRIAQLQLQQQQQQQQQQQQQQQQALQAQPPIQQPPMQQPQPPPSQALPQQLQQMHHTQHHQPPPQPQQPPVAQNQPS
notes: Mediator complex subunit 15 (MED15), human, prion-like domain with the Q-rich coiled-coil and Pro-rich regions, residues 141-316; No cleavage step is described; Dimer by SEC, native PAGE and DLS; source: E. coli BL21 Rosetta, pET21b, purified from the soluble fraction (two HisTrap Ni steps, RNase treatment, PD10); not shown: GFP, N-terminal, kept
- stoichiometry N [3]: 2
